Drawing on patent publication US20220105163A1 (UNITED BIOMEDICAL, published 2022), this text covers IC50 for one molecule.

In assay [1] the target is T1, Recombinant His-tagged human IL-6Rα (human, UniProt P08887 20-365, limits assumed).
T1 construct: Bought from GenScript; also called sIL-6Rα; not shown: His tag
T1 sequence (looked up): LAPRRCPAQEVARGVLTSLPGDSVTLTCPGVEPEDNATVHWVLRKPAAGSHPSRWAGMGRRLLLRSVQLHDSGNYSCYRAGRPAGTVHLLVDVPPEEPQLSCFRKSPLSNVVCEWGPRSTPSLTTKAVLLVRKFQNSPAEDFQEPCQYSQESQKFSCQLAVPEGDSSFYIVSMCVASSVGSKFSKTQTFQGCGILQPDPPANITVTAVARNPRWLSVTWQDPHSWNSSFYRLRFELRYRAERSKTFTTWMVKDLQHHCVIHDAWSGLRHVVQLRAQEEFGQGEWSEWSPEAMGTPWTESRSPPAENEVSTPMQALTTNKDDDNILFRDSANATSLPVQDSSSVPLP
In words: competition ELISA: inhibition of IL-6/IL-6Rα complex binding to coated gp130-Fc (trans-binding). (ELISA stands for enzyme-linked immunosorbent assay.)

The target of assay [2] is T1, Recombinant His-tagged human IL-6Rα. Description: competition ELISA: inhibition of IL-6 binding to coated IL-6Rα (cis-binding).

B1: Tocilizumab (antibody, V domains shown)
VH: QVQLQESGPGLVRPSQTLSLTCTVSGYSITSDHAWSWVRQPPGRGLEWIGYISYSGITTYNPSLKSRVTMLRDTSKNQFSLRLSSVTAADTAVYYCARSLARTTAMDYWGQGSLVTVSS
VL: DIQMTQSPSSLSASVGDRVTITCRASQDISSYLNWYQQKPGKAPKLLIYYTSRLHSGVPSRFSGSGSGTDFTFTISSLQPEDIATYYCQQGNTLPYTFGQGTKVEIKR
As for B1, the concentration for half-maximal inhibition (IC50) (commonly the midpoint of a concentration-inhibition curve) in assay [1] was determined as 0.1 µg/mL; in assay [2], 0.935 µg/mL.
